Measurements reported in paper PMC12366701.

How the values were obtained:
[1] = target: porcine double-stabilized microtubules (dsMTs) (porcine (endogenous in pig brain)) (UniProt P02550); experiment: TIRF microscopy binding assay; porcine dsMTs attached to coverslips via an anti-β-tubulin antibody; 100 nM Janelia Fluor 549-labelled TTLL11 variants in 40 mM tris-HCl pH 7.0, 1 mM TCEP, 1 mM MgCl2, 5% glycerol, casein, 10 μM paclitaxel; 22°C; intensity per μm of MT normalized to the control
[2] = target: AspN-treated porcine dsMTs (β-tubulin C-tail removed) (porcine (endogenous in pig brain)) (UniProt P02550); experiment: as above

Chain of UniProt P02550 (P02550 whole entry, chain 1 of 2): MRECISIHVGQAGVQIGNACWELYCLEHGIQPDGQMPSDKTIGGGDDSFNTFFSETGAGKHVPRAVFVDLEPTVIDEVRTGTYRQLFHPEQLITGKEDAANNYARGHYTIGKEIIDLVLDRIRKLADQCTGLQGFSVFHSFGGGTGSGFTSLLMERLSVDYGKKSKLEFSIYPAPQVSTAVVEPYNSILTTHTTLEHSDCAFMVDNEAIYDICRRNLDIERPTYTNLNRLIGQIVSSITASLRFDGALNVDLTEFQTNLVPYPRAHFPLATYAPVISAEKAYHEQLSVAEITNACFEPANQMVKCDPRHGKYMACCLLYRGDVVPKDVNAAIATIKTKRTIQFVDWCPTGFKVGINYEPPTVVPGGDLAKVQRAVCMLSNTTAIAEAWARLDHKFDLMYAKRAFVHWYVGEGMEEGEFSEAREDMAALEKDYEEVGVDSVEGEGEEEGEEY
Chain of UniProt P02550 (P02554 whole entry, chain 2 of 2, further chain): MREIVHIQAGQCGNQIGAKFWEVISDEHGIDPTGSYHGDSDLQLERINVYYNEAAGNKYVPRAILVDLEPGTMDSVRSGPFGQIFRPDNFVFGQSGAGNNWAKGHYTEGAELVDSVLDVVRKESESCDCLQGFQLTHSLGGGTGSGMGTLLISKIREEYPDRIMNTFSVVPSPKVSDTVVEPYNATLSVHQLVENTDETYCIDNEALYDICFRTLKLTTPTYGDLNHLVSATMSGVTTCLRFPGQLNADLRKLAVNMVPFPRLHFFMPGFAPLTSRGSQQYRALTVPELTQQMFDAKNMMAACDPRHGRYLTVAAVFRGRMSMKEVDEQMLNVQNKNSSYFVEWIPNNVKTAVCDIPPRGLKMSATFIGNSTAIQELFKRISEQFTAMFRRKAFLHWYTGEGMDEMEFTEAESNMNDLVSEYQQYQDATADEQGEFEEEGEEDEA

## hTTLL11 I594W mutant (from UniProt Q8NHH1 1-710) (enzyme)
[1]
  percent reduction of the fluorescence signal intensity: 80%

## hTTLL11 R601E mutant (from UniProt Q8NHH1 1-710) (enzyme)
[1]
  percent reduction of the fluorescence signal intensity: 60%

B1: human TTLL11 (hTTLL11), full-length (enzyme)
chain: MRRGSSESELAARWEAEAVAAAKAAAKAEAEATAETVAEQVRVDAGAAGEPECKAGEEQPKVLAPAPAQPSAAEEGNTQVLQRPPPTLPPSKPKPVQGLCPHGKPRDKGRSCKRSSGHGSGENGSQRPVTVDSSKARTSLDALKISIRQLKWKEFPFGRRLPCDIYWHGVSFHDNDIFSGQVNKFPGMTEMVRKITLSRAVRTMQNLFPEEYNFYPRSWILPDEFQLFVAQVQMVKDDDPSWKPTFIVKPDGGCQGDGIYLIKDPSDIRLAGTLQSRPAVVQEYICKPLLIDKLKFDIRLYVLLKSLDPLEIYIAKDGLSRFCTEPYQEPTPKNLHRIFMHLTNYSLNIHSGNFIHSDSASTGSKRTFSSILCRLSSKGVDIKKVWSDIISVVIKTVIALTPELKVFYQSDIPTGRPGPTCFQILGFDILLMKNLKPILLEVNANPSMRIEHEHELSPGVFENVPSLVDEEVKVAVIRDTLRLMDPLKKKRENQSQQLEKPFAGKEDALDGELTSAPDCNANPEAHLPSICLKQVFPKYAKQFNYLRLVDRMANLFIRFLGIKGTMKLGPTGFRTFIRSCKLSSSSLSMAAVDILYIDITRRWNSMTLDQRDSGMCLQAFVEAFFFLAQRKFKMLPLHEQVASLIDLCEYHLSLLDEKRLVCGRGVPSGGRPPHRGPPQEPSPSAQPAGDNPPPRTSCANKLSHPRHTLS
modifications: Janelia Fluor 549-HALO probe on the HALO tag (TIRF assay)
[2]
  percent lower fluorescence signal than on intact MTs: 50%
